Experimental data as given in patent US20160213771A1.

Target: CXC chemokine receptor 2 (CXCR2) (UniProt P25025)
Experiment: cell-based or functional assay

UniProt P25025, sequence (P25025 whole entry): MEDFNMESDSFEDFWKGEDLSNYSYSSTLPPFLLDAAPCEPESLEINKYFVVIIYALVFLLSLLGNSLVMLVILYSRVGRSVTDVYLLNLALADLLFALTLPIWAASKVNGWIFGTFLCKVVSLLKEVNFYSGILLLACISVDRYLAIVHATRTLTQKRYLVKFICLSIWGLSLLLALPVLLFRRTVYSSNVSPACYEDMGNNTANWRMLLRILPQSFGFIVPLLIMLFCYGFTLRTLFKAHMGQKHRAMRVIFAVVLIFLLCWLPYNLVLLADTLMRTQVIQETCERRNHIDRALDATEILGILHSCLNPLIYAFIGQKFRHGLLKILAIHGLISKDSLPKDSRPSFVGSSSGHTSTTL

Substance	chemotactic response in Transwell migration assays
UL146 (ligand)	> 500%
IL-8 (from UniProt P10145 28-99) (ligand)	> 500%
